Laboratory results: publication PMC9177701, “Taf2 mediates DNA binding of Taf14” (Nature Communications, 2022)
Each block holds one molecule with its values, some of them ahead of it. Ends that are not written are not given here. * marks the point of attachment. Crotonyl(E) = C/C=C/C(=O)*

How the values were obtained:
[1] = biological target: FAM-labeled Taf2CT peptide (S. cerevisiae) (UniProt P23255); assay: MST; FAM-labeled Taf2CT peptide kept at 20 nM, Taf14ET varied; 20 mM Tris-HCl pH 7.5, 150 mM NaCl, 0–0.2 mM TCEP; Monolith NT.115; n = 3
[2] = test system: Taf14dET (Saccharomyces cerevisiae); assay: EMSA; settings: EMSA: 20-25 mM Tris-HCl pH 7.5, 100-150 mM NaCl, 0.2 mM EDTA (+20% glycerol for NCP), 4 °C 10 min, 0.25 pmol/lane; NMR: 50 mM Tris pH 6.6-7.5, 150 mM NaCl or …
[3] = test system: Taf14dYEATS (Saccharomyces cerevisiae); assay: EMSA; settings: EMSA: 20-25 mM Tris-HCl pH 7.5, 100-150 mM NaCl, 0.2 mM EDTA (+20% glycerol for NCP), 4 °C 10 min, 0.25 pmol/lane; NMR: 50 mM Tris pH 6.6-7.5, 150 mM NaCl or …
[4] = biological target: His-Taf14ET (S. cerevisiae) (UniProt P35189); assay: MST; His-tagged Taf14 protein labeled with RED-tris-NTA kept at 20 nM, unlabeled peptide added stepwise; 20 mM Tris-HCl pH 7.5, 150 mM NaCl, 0–0.2 mM TCEP; Monolith NT.115; n = 2 or 3
[5] = biological target: T1, Taf14FL (full-length Taf14, aa 1–244) (S. cerevisiae, UniProt P35189 1-244); assay: NMR titration; 1H,15N HSQC of 0.1–0.3 mM uniformly 15N-labeled Taf14 protein, unlabeled peptide added; 298 K; 50 mM Tris-HCl pH 6.6–7.5, 150 mM NaCl, 0–5 mM DTT or 0.2 mM TCEP, or 1x PBS pH 6.6–7.5; settings: both partners purified
T1 construct: Taf14 (transcription initiation factor subunit 14), S. cerevisiae, aa 1–244, a 244-residue protein; In the EMSAs (functional rows) GST-Taf14 or Taf14 proteins were used; source: E. coli Rosetta-2 (DE3) pLysS, purified (SEC for cross-linking; 15N-labeled for NMR)
T1 sequence (looked up): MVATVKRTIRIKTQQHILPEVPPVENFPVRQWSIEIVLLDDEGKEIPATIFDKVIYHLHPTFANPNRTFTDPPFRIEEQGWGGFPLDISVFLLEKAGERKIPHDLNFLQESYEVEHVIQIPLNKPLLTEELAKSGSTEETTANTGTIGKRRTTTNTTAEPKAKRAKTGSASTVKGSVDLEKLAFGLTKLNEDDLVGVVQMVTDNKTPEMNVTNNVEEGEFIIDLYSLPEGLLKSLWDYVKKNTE

Taf14FL = Taf14FL (Saccharomyces cerevisiae, UniProt P35189 1-244); assay: EMSA; EMSA: 20-25 mM Tris-HCl pH 7.5, 100-150 mM NaCl, 0.2 mM EDTA (+20% glycerol for NCP), 4 °C 10 min, 0.25 pmol/lane; NMR: 50 mM Tris pH 6.6-7.5, 150 mM NaCl or 1x PBS, 298 K; settings: protein: recombinant; 15N-labelled for NMR; 5' overhang 1 nt (extra T on strand 2 as printed)
Taf14FL;Taf2CT = Taf14FL;Taf2CT (Saccharomyces cerevisiae;Saccharomyces …, UniProt P35189;P23255 1-244;1392-1402, |); assay: EMSA; Taf14:Taf2CT 1:10; augmented vs Taf14FL alone; EMSA: 20-25 mM Tris-HCl pH 7.5, 100-150 mM NaCl, 0.2 mM EDTA (+20% glycerol for NCP), 4 °C 10 min, 0.25 pmol/lane; NMR: 50 mM Tris pH 6.6-7.5, 150 mM NaCl or 1x PBS, 298 K; settings: 15N-labelled for NMR;; 5' overhang 1 nt (extra T on strand 2 as printed)
His-Taf14FL = biological target: T2, His-Taf14FL (S. cerevisiae, UniProt P35189 1-244); assay: MST; His-tagged Taf14 protein labeled with RED-tris-NTA kept at 20 nM, unlabeled peptide added stepwise; 20 mM Tris-HCl pH 7.5, 150 mM NaCl, 0–0.2 mM TCEP; Monolith NT.115; n = 2 or 3; settings: both partners purified
T2 construct: Taf14, S. cerevisiae, aa 1–244; Labelled on the His tag with the His-Tag Labeling Kit RED-tris-NTA (2nd Generation) for MST; source: E. coli Rosetta-2 (DE3) pLysS, purified (Ni-NTA, SEC)
T2 sequence (looked up): T1 sequence (looked up)

His-Taf14_(YEATS) = biological target: T3, His-Taf14_(YEATS) (S. cerevisiae, UniProt P35189 1-137); assay: as above; settings: both partners purified
T3 construct: Taf14, S. cerevisiae, YEATS domain, aa 1–137; Labelled on the His tag with the His-Tag Labeling Kit RED-tris-NTA (2nd Generation) for MST; source: E. coli Rosetta-2 (DE3) pLysS, purified (Ni-NTA, SEC)
T3 sequence (looked up): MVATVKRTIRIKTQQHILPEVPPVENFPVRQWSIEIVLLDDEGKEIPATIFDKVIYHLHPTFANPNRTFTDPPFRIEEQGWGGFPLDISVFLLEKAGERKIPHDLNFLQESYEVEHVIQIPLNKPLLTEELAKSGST

[6] = biological target: T4, Taf14_(YEATS) (YEATS domain of Taf14, aa 1–137) (S. cerevisiae, UniProt P35189 1-137, uniformly 15N-labeled); assay: NMR titration; 1H,15N HSQC of 0.1–0.3 mM uniformly 15N-labeled Taf14 protein, unlabeled peptide added; 298 K; 50 mM Tris-HCl pH 6.6–7.5, 150 mM NaCl, 0–5 mM DTT or 0.2 mM TCEP, or 1x PBS pH 6.6–7.5; settings: both partners purified
T4 construct: Taf14, S. cerevisiae, YEATS domain, aa 1–137; source: E. coli Rosetta-2 (DE3) pLysS, minimal media with 15NH4Cl, purified
T4 sequence (looked up): T3 sequence (looked up)

FAM-labeled Taf2CT peptide (S. cerevisiae), sequence (P23255 whole entry, looked up, tested part not stated): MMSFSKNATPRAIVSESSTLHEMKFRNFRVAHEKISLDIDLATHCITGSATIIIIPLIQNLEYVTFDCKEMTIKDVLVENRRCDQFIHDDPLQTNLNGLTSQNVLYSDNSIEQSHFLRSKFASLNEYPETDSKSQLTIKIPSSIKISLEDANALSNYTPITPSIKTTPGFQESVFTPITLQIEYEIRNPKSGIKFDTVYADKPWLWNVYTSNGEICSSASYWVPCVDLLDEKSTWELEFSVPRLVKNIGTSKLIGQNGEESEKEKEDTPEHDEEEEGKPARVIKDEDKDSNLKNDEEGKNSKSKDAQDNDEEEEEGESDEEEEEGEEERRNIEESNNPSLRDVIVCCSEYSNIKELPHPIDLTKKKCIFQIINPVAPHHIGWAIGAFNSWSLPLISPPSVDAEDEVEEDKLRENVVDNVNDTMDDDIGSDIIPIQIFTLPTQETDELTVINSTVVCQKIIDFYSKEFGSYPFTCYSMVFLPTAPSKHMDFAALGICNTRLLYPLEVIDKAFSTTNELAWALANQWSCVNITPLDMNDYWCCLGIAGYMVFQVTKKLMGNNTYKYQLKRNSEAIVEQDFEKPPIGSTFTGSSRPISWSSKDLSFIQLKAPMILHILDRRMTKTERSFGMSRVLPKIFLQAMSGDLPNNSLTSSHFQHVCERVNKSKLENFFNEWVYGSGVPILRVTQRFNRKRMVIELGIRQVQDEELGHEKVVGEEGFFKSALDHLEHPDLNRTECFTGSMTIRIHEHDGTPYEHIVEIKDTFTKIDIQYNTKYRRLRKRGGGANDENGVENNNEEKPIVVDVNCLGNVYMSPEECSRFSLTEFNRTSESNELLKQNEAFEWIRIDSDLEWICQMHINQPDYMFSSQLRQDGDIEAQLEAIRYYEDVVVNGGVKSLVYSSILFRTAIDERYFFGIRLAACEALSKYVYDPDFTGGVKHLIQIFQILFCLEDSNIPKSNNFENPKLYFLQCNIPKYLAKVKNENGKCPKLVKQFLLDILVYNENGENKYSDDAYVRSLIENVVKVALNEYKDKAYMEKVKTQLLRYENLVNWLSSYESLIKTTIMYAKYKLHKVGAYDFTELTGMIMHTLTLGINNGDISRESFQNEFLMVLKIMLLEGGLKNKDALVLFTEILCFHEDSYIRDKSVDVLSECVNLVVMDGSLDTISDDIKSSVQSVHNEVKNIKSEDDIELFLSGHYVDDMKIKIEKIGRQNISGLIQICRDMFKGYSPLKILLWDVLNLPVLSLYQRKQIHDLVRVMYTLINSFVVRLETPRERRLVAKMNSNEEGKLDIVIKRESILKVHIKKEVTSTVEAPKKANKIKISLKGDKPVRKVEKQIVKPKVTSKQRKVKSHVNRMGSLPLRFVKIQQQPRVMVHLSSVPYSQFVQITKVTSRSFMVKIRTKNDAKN

Molecule: Taf14ET (ET domain of Taf14, aa 168–243) (from UniProt P35189 168-243) (domain or fragment)
Kd [1]: 1.6 µM

Molecule: 601 Widom DNA 147 bp
binding signal (fold tighter than Taf14FL) [2]: > 6
binding signal (fold tighter than Taf14FL) [3]: > 6

B1: 37 bp non-specific dsDNA (dsDNA)
DNA 1: CGTGTCAGATATATACATCCGATATCAGATCTCGTCA
DNA 2: TTGACGAGATCTGATATCGGATGTATATATCTGACACG
binding result (Taf14FL): binds
binding result (Taf14FL;Taf2CT): binds

B2: Taf2CT peptide (aa 1392–1402 of Taf2) (peptide, UniProt P23255 1392-1402, looked up)
peptide: SRSFMVKIRTK
notes: Taf2, subunit of yeast TFIID, C-terminal hxhKh motif-containing tail, aa 1392–1402; also called Taf2 peptide; C-terminal tail of Taf2; source: synthetic peptide (Synpeptide)
Kd (His-Taf14FL): 0.7 µM
Kd (His-Taf14_(YEATS)): 6 µM

Results, then the molecule that gave them:

Kd [4]: 640 µM
Molecule: Taf14_(Linker) peptide (aa 145–169 of Taf14) (from UniProt P35189 145-169)

binding result [5]: binds
Molecule: ARTKQTARKSTGGKAPRKQ (peptide, UniProt P61830 2-20, looked up, crotonyl-lysine at 9, the NMR methods list only H3K9cr_(5-13)) [H3K9cr_(1-19) peptide]

binding result [6]: binds
B3: H3K9cr_(5-13) peptide (residues 5–13 of H3) (peptide, UniProt P61830 6-14, looked up)
peptide: QTARK(Crotonyl(E))STGG
notes: also called H3K9cr peptide; source: synthetic peptide (Synpeptide)
